Experimental data: patent US7202329 (MYRIAD GENETICS, dated 2007)

Legend:
[1] = molecular target: T1, GTPase-activating protein 1 (aa 1299-1555) (UniProt P46940 1299-1555); experiment: yeast two-hybrid
T1 construct: range 1299-1555; also called IQGAP1; IQGAP
T1 sequence (looked up): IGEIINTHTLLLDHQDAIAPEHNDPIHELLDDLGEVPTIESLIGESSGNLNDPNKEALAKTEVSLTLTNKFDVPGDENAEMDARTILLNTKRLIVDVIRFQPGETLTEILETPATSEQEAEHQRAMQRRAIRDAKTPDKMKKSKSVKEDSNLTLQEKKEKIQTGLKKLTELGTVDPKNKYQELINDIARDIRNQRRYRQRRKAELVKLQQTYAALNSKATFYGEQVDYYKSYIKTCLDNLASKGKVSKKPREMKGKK

[2] = molecular target: T2, GTPase-activating protein 1 (aa 1413-1567) (UniProt P46940 1413-1567); experiment: yeast two-hybrid
T2 construct: range 1413-1567; also called IQGAP1; IQGAP
T2 sequence (looked up): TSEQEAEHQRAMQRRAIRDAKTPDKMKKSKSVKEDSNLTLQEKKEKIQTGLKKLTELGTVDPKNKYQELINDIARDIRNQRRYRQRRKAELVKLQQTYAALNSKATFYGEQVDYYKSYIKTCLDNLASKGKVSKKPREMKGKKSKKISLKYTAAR

[3] = molecular target: T3, GTPase-activating protein 1 (aa 1308-1606) (UniProt P46940 1308-1606); experiment: yeast two-hybrid
T3 construct: range 1308-1606; also called IQGAP1; IQGAP
T3 sequence (looked up): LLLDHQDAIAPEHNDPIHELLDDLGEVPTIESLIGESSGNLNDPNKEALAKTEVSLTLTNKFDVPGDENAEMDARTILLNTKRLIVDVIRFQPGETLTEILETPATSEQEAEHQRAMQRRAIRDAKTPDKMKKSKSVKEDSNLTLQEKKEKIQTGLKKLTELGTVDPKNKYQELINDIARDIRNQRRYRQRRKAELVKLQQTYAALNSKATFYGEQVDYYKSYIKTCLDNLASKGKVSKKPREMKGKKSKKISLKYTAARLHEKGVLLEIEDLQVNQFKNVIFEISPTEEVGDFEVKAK

[4] = molecular target: T4, GTPase-activating protein 1 (aa 1392-1657) (UniProt P46940 1392-1657); experiment: yeast two-hybrid
T4 construct: range 1392-1657; also called IQGAP1; IQGAP
T4 sequence (looked up): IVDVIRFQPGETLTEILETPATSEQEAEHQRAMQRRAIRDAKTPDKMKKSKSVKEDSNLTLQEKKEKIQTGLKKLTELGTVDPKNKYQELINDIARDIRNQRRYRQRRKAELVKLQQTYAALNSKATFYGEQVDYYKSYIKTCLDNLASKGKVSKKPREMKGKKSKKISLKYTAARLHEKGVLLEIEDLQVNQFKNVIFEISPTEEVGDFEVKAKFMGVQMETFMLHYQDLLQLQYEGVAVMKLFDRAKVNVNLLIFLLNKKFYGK

[5] = molecular target: T5, serum deprivation response (aa 75-258) (UniProt O95810 75-258); experiment: yeast two-hybrid
T5 construct: range 75-258
T5 sequence (looked up): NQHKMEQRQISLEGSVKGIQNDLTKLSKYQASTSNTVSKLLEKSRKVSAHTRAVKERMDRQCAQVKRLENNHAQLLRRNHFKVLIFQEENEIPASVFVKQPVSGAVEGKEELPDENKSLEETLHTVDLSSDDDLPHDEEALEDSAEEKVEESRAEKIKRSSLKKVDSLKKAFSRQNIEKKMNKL

[6] = molecular target: T6, mitotic spindle coiled-coil related protein (aa 668-895) (UniProt Q96R06 668-895); experiment: yeast two-hybrid
T6 construct: range 668-895
T6 sequence (looked up): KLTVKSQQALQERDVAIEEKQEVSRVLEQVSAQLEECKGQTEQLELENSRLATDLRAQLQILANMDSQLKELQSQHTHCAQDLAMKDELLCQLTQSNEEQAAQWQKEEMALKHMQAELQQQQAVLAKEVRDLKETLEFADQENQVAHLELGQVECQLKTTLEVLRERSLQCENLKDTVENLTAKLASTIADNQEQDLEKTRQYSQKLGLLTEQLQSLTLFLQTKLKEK

[7] = molecular target: T7, mitotic spindle coiled-coil related protein (aa 701-1082) (UniProt Q96R06 701-1082); experiment: yeast two-hybrid
T7 construct: range 701-1082
T7 sequence (looked up): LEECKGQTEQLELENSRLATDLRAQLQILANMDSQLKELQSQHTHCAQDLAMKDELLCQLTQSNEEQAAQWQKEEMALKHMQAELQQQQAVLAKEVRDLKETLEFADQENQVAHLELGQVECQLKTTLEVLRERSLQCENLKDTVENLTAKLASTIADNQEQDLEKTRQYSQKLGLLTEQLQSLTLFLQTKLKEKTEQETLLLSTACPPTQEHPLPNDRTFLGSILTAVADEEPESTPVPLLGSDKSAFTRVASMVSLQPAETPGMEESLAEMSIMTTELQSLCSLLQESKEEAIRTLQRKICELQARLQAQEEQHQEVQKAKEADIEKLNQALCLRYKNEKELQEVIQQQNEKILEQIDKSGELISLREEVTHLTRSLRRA

[8] = molecular target: T8, VPS28 protein (aa 27-221) (human, UniProt Q9UK41 27-221); experiment: yeast two-hybrid, breast and prostate cancer library, bait Tsg101 240-391
T8 sequence (looked up): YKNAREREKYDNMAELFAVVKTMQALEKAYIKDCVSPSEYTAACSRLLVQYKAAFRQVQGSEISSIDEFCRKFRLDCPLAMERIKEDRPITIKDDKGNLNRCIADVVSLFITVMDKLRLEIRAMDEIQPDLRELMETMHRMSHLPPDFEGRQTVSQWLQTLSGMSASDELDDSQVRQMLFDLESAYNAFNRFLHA

Measured: binding result

B1: Tsg101 (aa 240-391) (other, human, UniProt Q99816 240-390, looked up)
chain: WRMKEEMDRAQAELNALKRTEEDLKKGHQKLEEMVTRLDQEVAEVDKNIELLKKKDEELSSALEKMENQSENNDIDEVIIPTAPLYKQILNLYAEENAIEDTIFYLGEALRRGVIDLDVFLKHVRLLSRKQFQLRALMQKARKTAGLSDLY
notes: range 240-391; also called C-terminal fragment of Tsg101; amino acid residues 240-390
binds: [1] | [2] | [3] | [4] | [5] | [6] | [7] | [8]
